# Tests used:
# [1] = tested on: binding of human neutrophils to IL-1 stimulated human umbilical cord endothelial cells (HUVEC); experiment: Adhesion of human neutrophils to IL-1 stimulated HUVEC; assay type: cell-based; conditions: HUVEC stimulated with 20 ng/ml IL-1β for 4 hr; 4° C., 30 min
# Description: FIG. 5A. Binding of human neutrophils to IL-1 stimulated human umbilical cord endothelial cells (HUVEC). The neutrophils were first treated with irrelevant control antibody, mouse DREG-200 antibody, or humanized IgG1 DREG-200 antibody, or left untreated, as indicated.
# The ability of the mouse and humanized DREG-200 antibodies to block the adhesion of human neutrophils to endothelial cells was determined using a modification of the assay method of Hallmann et al., Biochem. Biophys. Res. Comm. 174:236 (1991). Specifically, human umbilical cord endothelial cells (HUVEC; from Clonetics, San Diego) were grown to confluence in EGM medium (Clonetics) in Lab-Tek 8-chamber slides (Nunc, Naperville, Ill.). The HUVEC cells were stimulated with 20 ng/ml IL-1β (R&D Systems, Minneapolis, Minn.) for 4 hr before use. Neutrophils were isolated by density gradient centrifugation from buffy coats that had been cleared of erythrocytes by dextran sedimentation, and then adjusted to 10^7 per ml. The neutrophils (100 μl) were pre-incubated for 20 minutes on ice with varying concentrations of antibody (in 100 μl RPMI). The HUVEC slides were washed free of IL-1β and placed on a rotary shaker (100 rpm) at 4° C. […] Neutrophil adherence was quantified by counting the neutrophils attached to a defined area of the endothelial cell monolayer with a microscope.
# rabbit leukocytes = conditions: reported in the literature; cited from earlier work
# [2] = tested on: binding of human neutrophils to stimulated human umbilical vein endothelial cells; conditions: Kishimoto et al., Blood 78:805 (1991); cited from earlier work
# [3] = tested on: binding of human lymphocytes to peripheral lymph node high endothelial venules; conditions: Kishimoto et al.; cited from earlier work
# human L-selectin = experiment: Competitive binding of mouse and humanized DREG-200 antibodies against 125I-labeled mouse DREG-200 on transfected cells; conditions: competition with radio-iodinated mouse DREG-200; 1 hr at 4° C.
# Description: FIG. 4. Competitive binding of mouse and humanized IgG1 and IgG4 DREG-200 antibodies. The target cells were L2-1 cells, a mouse pre-B cell line, that was transfected with a human L-selectin gene and thus expresses human L-selectin (Berg et al., Biochem. Biophys. Res. Comm. 184:1048 (1992)). 5×10^5 cells were incubated with 3 ng of ^125 I-labeled tracer mouse antibody (2 μCi/μg), together with increasing amounts of mouse or humanized competitor antibody as indicated in 0.2 ml of binding buffer (PBS+2% FBS+0.1% azide) for 1 hr at 4° C. Cells were washed and pelleted, and their bound radioactivity measured. The concentrations of bound and free tracer antibody were calculated.
# The affinity of the humanized DREG-200 antibodies for L-selectin were determined by competition with the radio-iodinated mouse DREG-200 antibody (FIG. 4). The binding affinities were calculated according to the methods of Berzofsky (J. A. Berzofsky and I. J. Berkower, in Fundamental Immunology (ed. W. E. Paul), Raven Press (New York), 595 (1984), which is incorporated herein by reference in its entirety for all purposes).
# [4] = tested on: binding of human PBMC to peripheral lymph node high endothelial venules; experiment: Adhesion of human PBMC to peripheral lymph node high endothelial venules; assay type: cell-based; conditions: frozen sections of mouse peripheral lymph nodes; 25 minutes
# Description: FIG. 10: Inhibition of binding of human PBMC to peripheral lymph node high endothelial venules by humanized DREG-55 (HuDREG-55) and humanized DREG-200 (HuDREG-200). The average number of cells bound per HEV for each antibody treatment is shown. Error bars show the standard errors of the values calculated for three sections.
# Human peripheral blood mononuclear cells were isolated and cultured for 2 days at 37° C. in 10% FBS/DMEM. After washing and resuspending in assay medium (5% FBS/DMEM/10 mM HEPES, pH 6.9) at 7×10^6 /ml in the presence of the indicated concentrations of humanized DREG-55, humanized DREG-200 or negative control antibody, cells were applied to frozen sections of mouse peripheral lymph nodes (PLN) while rotating at 50 rpm (as described in Streeter et al., Cell 107, 1853 (1988)). After 25 minutes, non-adherent cells were gently dumped and adherent cells fixed to sections by immersion in 1.5% glutaraldehyde-PBS. Slides were counterstained with thionine and the number of cells bound to each high endothelial venule (HEV) (n=60) in triplicate sections was determined microscopically. The average number of cells bound per HEV for each treatment was calculated.
# cat leukocytes = conditions: reported in the literature; cited from earlier work
# L-selectin [5] = experiment: Flow cytometry binding to L1-2 L-selectin transfectants; conditions: 1 hour incubation; FITC-conjugated goat anti-human Ig
# Description: FIG. 8: Binding of humanized DREG-55 to L1-2^L-selectin transfectants compared to binding of control antibody as analyzed by flow cytometry. Fluorescence intensity is indicated on the x-axis.
# After washing, cells were incubated in a 1:250 dilution of FITC-conjugated goat anti-human Ig, washed, then analyzed for fluorescence by flow cytometry (FACS).
# L-selectin [6] = experiment: Competitive binding of mouse and humanized DREG-55 to CHO L-selectin cells; conditions: 2 hr at 4° C.
# Description: FIG. 9: Competitive binding of mouse and humanized DREG-55 antibodies to CHO^L-selectin cells expressing L-selectin. Increasing concentrations of cold competitor antibody were incubated with the cells in the presence of radiolabeled tracer humanized DREG-55 antibody, and the ratio of bound/free radioactivity was determined.
# The affinity of the humanized DREG-55 antibody for L-selectin was determined by competition with the radio-iodinated humanized DREG-55 antibody (FIG. 9). Purified humanized DREG-55 antibody was labeled with Na^125 I (Amersham, Arlington Heights, Ill.) using lactoperoxidase to 4 mCi/mg of protein (Marchalonis, Biochem. J. 113, 299 (1969)). CHO^L-selectin cells, which were obtained by transfecting the L-selectin genes into the host CHO cells, were used as a source for L-selectin. […] Cells were then washed and centrifuged, and their radioactivities measured. The ratio of bound and free tracer antibody were calculated. The binding affinities were calculated according to the methods of Berzofsky and Berkower (J. A. Berzofsky and I. J. Berkower, in Fundamental Immunology (ed. W. E. Paul), Raven Press (New York), p. 595 (1984), which is incorporated herein by reference).
Molecule,blocking of binding of human neutrophils to stimulated human umbilical vein endothelial cells [2],blocking of binding of human lymphocytes to peripheral lymph node high endothelial venules [3],adhesion of human PBMC to lymph node high endothelial venules [4],further results
mouse DREG-200: mouse monoclonal antibody that binds to human L-selectin (Kishimoto et al.); CDR donor [reference compound],partially or completely block,partially or completely block,,blocking of binding of neutrophils to HUVEC [1]: effectively blocked; cross-reactivity with rabbit leukocytes (rabbit leukocytes): cross-reactivity
"humanized DREG-200: humanized anti-L-selectin antibody, mouse DREG-200 CDRs in human Eu framework, sequences in FIG. 2; isotype not stated at these places (antibody, V domains shown) VH: MGWSCIILFLVATATGVHSQVQLVQSGAEVKKPGSSVKVSCKASGYTFTSYVMHWVRQAPGQGLEWIGYIYPYNDGTKYNEKFKGRVTITSDESTNTAYMELSSLRSEDTAVYYCAREEYGNYVRYFDVWGQGTLVTVSS VL: MVFTPQILGLMLFWISASRGDIQMTQSPSTLSASVGDRVTITCKSSQSLLNSSNQKNYLAWYQQKPGKAPKLLVYFASTRESGVPDRFIGSGSGTDFTLTISSLQPEDFATYFCHQHYSTPLTFGQGTKVEVK",,,block adhesion,affinity relative to the mouse DREG-200 antibody (human L-selectin): ≤ 2 fold; cross-reactivity with cat leukocytes (cat leukocytes): cross-reactivity
"humanized DREG-55: humanized anti-L-selectin antibody, mouse DREG-55 CDRs in human Gal framework, sequences in FIG. 7 (antibody, V domains shown) VH: MNFGSSLIFLVLVLKGVQCEVQLVESGGGLVQPGGSLRLSCAASGFTFSTYAMSWVRQAPGKGLEWVASISTGGSTYYPDSVKGRFTISRDNAKNTLYLQMNSLRAEDTAVYYCARDYDGYFDYWGQGTLVTVSS VL: METDTILLWVLLLWVPGSTGDIQMTQSPSSLSASVGDRVTITCKASQSVDYDGDSYMNWYQQKPGKAPKLLIYAASNLESGIPSRFSGSGSGTDFTLTISSLQPEDFATYYCQQSNEDPWTFGQGTKVEIK",,,block adhesion,binding to L1-2 L-selectin transfectants by flow cytometry (L-selectin [5]): reacts
"mouse DREG-55: mouse monoclonal antibody that binds to human L-selectin (Kishimoto et al.); CDR donor (antibody, V domains shown) VH: MNFGSSLIFLVLVLKGVQCEVKLVESGGGLVKPGGSLKLACAASGFTFSTYAMSWVRQTPEKRLEWVASISTGGSTYYPDSVKGRFTISRDNARNILYLQMSSLRSEDTAMYYCARDYDGYFDYWGQGTTLTVSS VL: METDTILLWVLLLWVPGSTGDIVLTQSPASLSVSLGERASISCKASQSVDYDGDSYMNWYQQKPGQPPKLLIYAASNLESGIPARFSGSGSGTDFTLNIHPVEEEDAATYYCQQSNEDPWTFGGGTKLEIK",partially or completely block,partially or completely block,,affinity for L-selectin compared with humanized DREG-55 (L-selectin [6]): no significant difference

# From US6210671A, “Humanized antibodies reactive with L-selectin” (Protein Design Labs, Inc., priority 1995, dated 2001)
